According to patent publication US20240376214A1, “ANTI-C-MET ANTIBODIES AND ANTIBODY-DRUG CONJUGATES” (BYONDIS B.V., priority 2021, published 2024):
Substitutions are numbered along the chain they refer to.

B1: mAb2c (antibody, human IgG1, kappa, V domains shown)
VH: QVQLVQSGAEVKKPGSSVKVSCKASGYVFPDYEMHWVRQACGQGLEWMGAFDPETGDTTYNQNFKGRVTITADKSTSTAYMELSSLRSEDTAVYYCARDYKYLYYYAMDNWGQGTTVTVSS
VL: EIVLTQSPSLLSASIGDRVTIPCTASSSITSSYLHWYQQKPGKAPKLLIYSTTNLASGVPSRFSGSGSGTEFTLTISSLQPEDFATYYCHQYRRSPLTFGGGTKLEIKR
notes: Humanized IgG1 kappa, HC-41C, from wt/41C-chi-mAb2; also called humanized HC-41C antibody mAb2c
B2: mAb2a (antibody, human IgG1, kappa, V domains shown)
VH: B1 VH with V11L, K12R, K23R, T71A, S84R, V93I, T116M
VL: B1 VL
notes: Humanized IgG1 kappa, HC-41C, from wt/41C-chi-mAb2; also called humanized HC-41C antibody mAb2a
B3: mAb2b (antibody, human IgG1, kappa, V domains shown)
VH: B1 VH
VL: B1 VL with E1D, V3Q, L4M, L10S, I15V, P22T, E71D
notes: Humanized IgG1 kappa, HC-41C, from wt/41C-chi-mAb2; also called humanized HC-41C antibody mAb2b
B4: mAb1a (antibody, human IgG1, kappa, V domains shown)
VH: QVQLVQSGAEVKKPGASVKVSCKASGYIFTDYFMNWVRQACGQGLEWMGRVNPKNGDITYNQKFRGRVSLTKDTSINTAYMELSGLTSDDTAIYYCAYDGYYDGMDFWGQGTSVTVSS
VL: ELVMTQSPSSLSASVGDRVTITCRANSSVSSNFLHWYQQKPGKAPKLLISSTSNLAFGVPSRFSGTGSGTDFSLTISSLQPEDFAIYYCHQYSGHPFTFGQGTKLEIKR
notes: Humanized IgG1 kappa, HC-41C, from wt/41C-chi-mAb1; also called humanized HC-41C antibody mAb1a; mAbla
B5: mAb3c (antibody, human IgG1, kappa, V domains shown)
VH: QVQLVQSGAEVKKPGASVKVSCKASGYTFTDYYLNWVRQACGQGLEWMGLIFPGNDKTEYSEKFKGRVTLTTDTSISTAYMELSSLTSDDTALYYCSGGDYGGFVYWGQGTLVTVSS
VL: DIQMTQSPSSLSASVGDRVTITCGASENIYGALNWYQQKPGKAPKLLIYGATNLADGVPSRFSGSGSGTDFTLTISSLQPEDVATYYCQNVLSSPLTFGSGTKLEIKR
notes: Humanized IgG1 kappa, HC-41C, from wt/41C-chi-mAb3; also called humanized HC-41C antibody mAb3c
B6: mAb3d (antibody, human IgG1, kappa, V domains shown)
VH: B5 VH with V5Q, Q6E, L70M, T72R, I76T, A79V, T87R, D89E, L93V
VL: B5 VL with M4L, V83F, S100P, L104V, E105D
notes: Humanized IgG1 kappa, HC-41C, from wt/41C-chi-mAb3; also called humanized HC-41C antibody mAb3d
B7: mAb3e (antibody, human IgG1, kappa, V domains shown)
VH: B5 VH with V5Q, Q6E, L70M, T72R, I76T, A79V, T87R, D89E, L93V
VL: B5 VL
notes: Humanized IgG1 kappa, HC-41C, from wt/41C-chi-mAb3; also called humanized HC-41C antibody mAb3e
B8: mAb3a (antibody, human IgG1, kappa, V domains shown)
VH: B5 VH
VL: B5 VL with M4L, V83F, S100P, L104V, E105D
notes: Humanized IgG1 kappa, HC-41C, from wt/41C-chi-mAb3; also called humanized HC-41C antibody mAb3a
B9: wt-chi-mAb2 (antibody, human IgG1, kappa, V domains shown)
VH: QVQLQQSGAELVRPGASVKLSCKASGYVFPDYEMHWVKQTPVHGLEWIGAFDPETGDTTYNQNFKGKATLTADKASSTAYMDLRSLTSGDSAVYYCARDYKYLYYYAMDNWGQGTSVTVSS
VL: QIVLTQSPAIMSASLGERVTMTCTASSSITSSYLHWYQQKPGSSPKLWIYSTTNLASGVPGRFSGSGSGTSFSLTISSMEAEDAATYYCHQYRRSPLTFGAGTKLELKR
notes: Mouse/human chimeric IgG1 kappa; also called wild-type chimeric antibody mAb2
B10: 41C-chi-mAb2 (antibody, human IgG1, kappa, V domains shown)
VH: B9 VH with P41C
VL: B9 VL
notes: Chimeric IgG1 kappa with an engineered cysteine at HC position 41 (Kabat); also called HC-41C chimeric antibody mAb2
B11: wt-chi-mAb1 (antibody, human IgG1, kappa, V domains shown)
VH: EVQLQQSGPELLKPGASVKMSCKASGYIFTDYFMNWVKQSHGKSLEWIGRVNPKNGDITYNQKFRGKATLTVDKSLTTAYMQLNSLTSEDSAVYFCAYDGYYDGMDFWGQGTSVTVSS
VL: ENVLTQSPAIMSASPGEKVTMTCRANSSVSSNFLHWYQQKSGASPKLWISSTSNLAFGVPPRFSGSGSGTSYSLTISSVEAEDAATYYCHQYSGHPFTFGSGTKLEIKR
notes: Mouse/human chimeric IgG1 kappa; also called wild-type chimeric antibody mAb1
B12: 41C-chi-mAb1 (antibody, human IgG1, kappa, V domains shown)
VH: B11 VH with H41C
VL: B11 VL
notes: Chimeric IgG1 kappa with an engineered cysteine at HC position 41 (Kabat); also called HC-41C chimeric antibody mAb1

Target: T1, human c-Met (HGFR), full length, on the cell surface (human, UniProt P08581 25-1390)
T1 construct: Endogenous c-Met on human tumor cell lines MKN45, NCI-H596, PC-3 and HepG2; also called hepatocyte growth factor receptor; mesenchymal-epithelial transition factor
Assay: flow cytometry, PC-3 cells, without HGF
Description: (§1) Cellular binding of the in total 75 humanized anti-c-Met antibodies (originating from the three selected chimeric antibodies) was studied in human c-Met-positive tumor cell lines MKN45, NCI-H596 and PC-3, rhesus c-Met-positive tumor cell line 4 MBr-5, and human c-Met-negative tumor cell line MDA-MB-175-VII. Cells were used around 90% of confluence at the time of an assay, detached with Trypsin-Versene (EDTA) (Lonza) for 5-10 minutes, washed and adjusted to a concentration of 1×10⁶ cells/mL in ice-cold FACS buffer (PBS 1×, 0.1% v/w BSA, 0.02% v/v sodium azide (NaN₃)). Staining was performed in 96-well round-bottomed microtiter plates using ice-cold reagents/solutions at 4° C. to prevent the modulation and internalization of surface antigens. 100,000 cells/well were added to 96-well plates (100 μL/well) and centrifuged at 300×g for 3 minutes. In case of pre-incubation with HGF, the cells were resuspended in 50 ng/mL recombinant human HGF in FACS buffer (50 μL/well) and incubated for 30 minutes at 4° C., followed by two wash steps with 150 μL FACS buffer. Supernatant was discarded and cells were stained for 30 minutes with 50 μL of each antibody. Serial dilutions were made in ice-cold FACS buffer. Cells were washed twice by centrifugation at 300×g for 3 minutes and resuspended in 50 μL 6000-times diluted secondary F(ab′)₂ goat anti-human IgG (Fc fragment specific) antibody APC-conjugated (Jackson ImmunoResearch). Following a 30-minute incubation on ice, cells were washed again 2 times and resuspended in 150 μL ice-cold FACS buffer for FACS analysis. For analysis of the data, the Median Fluorescence Intensity (MFI) values were obtained.

T1 sequence (P08581 25-1390 limits assumed): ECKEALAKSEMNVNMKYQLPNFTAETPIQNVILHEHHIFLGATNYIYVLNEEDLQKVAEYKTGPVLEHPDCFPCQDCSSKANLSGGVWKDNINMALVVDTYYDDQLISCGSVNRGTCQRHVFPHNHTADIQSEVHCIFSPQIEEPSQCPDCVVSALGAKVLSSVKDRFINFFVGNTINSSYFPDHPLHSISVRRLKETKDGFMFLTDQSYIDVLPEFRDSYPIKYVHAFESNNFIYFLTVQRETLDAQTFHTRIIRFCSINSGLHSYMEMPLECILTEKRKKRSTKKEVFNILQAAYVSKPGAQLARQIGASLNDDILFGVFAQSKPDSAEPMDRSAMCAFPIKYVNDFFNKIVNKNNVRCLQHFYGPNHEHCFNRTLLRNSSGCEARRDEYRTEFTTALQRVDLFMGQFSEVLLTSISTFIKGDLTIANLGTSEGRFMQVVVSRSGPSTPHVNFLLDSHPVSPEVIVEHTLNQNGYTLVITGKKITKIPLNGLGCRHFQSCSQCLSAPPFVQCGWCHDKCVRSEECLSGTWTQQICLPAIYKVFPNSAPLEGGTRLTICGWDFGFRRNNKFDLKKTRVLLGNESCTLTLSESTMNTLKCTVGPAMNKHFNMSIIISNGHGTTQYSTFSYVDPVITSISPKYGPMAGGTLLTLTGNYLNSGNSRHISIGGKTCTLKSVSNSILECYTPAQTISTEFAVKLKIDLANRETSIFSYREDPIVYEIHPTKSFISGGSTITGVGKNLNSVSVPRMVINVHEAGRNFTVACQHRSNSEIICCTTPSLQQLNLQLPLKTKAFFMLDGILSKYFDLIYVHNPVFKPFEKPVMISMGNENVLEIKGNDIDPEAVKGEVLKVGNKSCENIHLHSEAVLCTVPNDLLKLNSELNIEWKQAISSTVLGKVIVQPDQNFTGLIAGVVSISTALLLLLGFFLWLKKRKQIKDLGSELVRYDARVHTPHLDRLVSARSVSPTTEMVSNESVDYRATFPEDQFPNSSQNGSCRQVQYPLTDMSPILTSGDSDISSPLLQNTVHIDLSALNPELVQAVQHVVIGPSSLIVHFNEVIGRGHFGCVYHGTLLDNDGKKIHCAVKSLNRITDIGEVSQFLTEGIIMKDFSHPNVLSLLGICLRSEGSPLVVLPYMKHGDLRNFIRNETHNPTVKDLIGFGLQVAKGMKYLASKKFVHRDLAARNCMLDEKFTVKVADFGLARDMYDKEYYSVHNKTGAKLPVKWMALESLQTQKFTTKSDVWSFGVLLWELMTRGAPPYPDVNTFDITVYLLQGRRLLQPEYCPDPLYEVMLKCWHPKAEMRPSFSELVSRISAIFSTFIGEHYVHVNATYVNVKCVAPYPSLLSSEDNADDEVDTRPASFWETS

Row | Binder | EC50
1 | B1 | 0.03 µg/mL
2 | B2 | 0.04 µg/mL
3 | B3 | 0.05 µg/mL
4 | B4 | 0.08 µg/mL
5 | B5 | 0.03 µg/mL
6 | B6 | 0.03 µg/mL
7 | B7 | 0.03 µg/mL
8 | B8 | 0.03 µg/mL

Target: T1, human c-Met (HGFR), full length, on the …
Assay: flow cytometry, MKN45 cells, without HGF
Description: as §1

Row | Binder | EC50
9 | B1 | 0.11 µg/mL
10 | B2 | 0.09 µg/mL
11 | B3 | 0.14 µg/mL
12 | B4 | 0.16 µg/mL
13 | B5 | 0.05 µg/mL
14 | B6 | 0.07 µg/mL
15 | B7 | 0.07 µg/mL
16 | B8 | 0.07 µg/mL

Target: T2, rhesus c-Met on 4MBr-5 cells (rhesus, UniProt F7H1K4 25-1381, Natural c-Met is cleaved at the furin site (KRKKR/S) into disulphide-linked alpha and beta subunits; given here as one mature polypeptide.)
T2 construct: also called rhesus c-Met antigen
Assay: flow cytometry, 4MBr-5 cells, without HGF
Description: as §1

T2 sequence (F7H1K4 entry or part of it limits assumed): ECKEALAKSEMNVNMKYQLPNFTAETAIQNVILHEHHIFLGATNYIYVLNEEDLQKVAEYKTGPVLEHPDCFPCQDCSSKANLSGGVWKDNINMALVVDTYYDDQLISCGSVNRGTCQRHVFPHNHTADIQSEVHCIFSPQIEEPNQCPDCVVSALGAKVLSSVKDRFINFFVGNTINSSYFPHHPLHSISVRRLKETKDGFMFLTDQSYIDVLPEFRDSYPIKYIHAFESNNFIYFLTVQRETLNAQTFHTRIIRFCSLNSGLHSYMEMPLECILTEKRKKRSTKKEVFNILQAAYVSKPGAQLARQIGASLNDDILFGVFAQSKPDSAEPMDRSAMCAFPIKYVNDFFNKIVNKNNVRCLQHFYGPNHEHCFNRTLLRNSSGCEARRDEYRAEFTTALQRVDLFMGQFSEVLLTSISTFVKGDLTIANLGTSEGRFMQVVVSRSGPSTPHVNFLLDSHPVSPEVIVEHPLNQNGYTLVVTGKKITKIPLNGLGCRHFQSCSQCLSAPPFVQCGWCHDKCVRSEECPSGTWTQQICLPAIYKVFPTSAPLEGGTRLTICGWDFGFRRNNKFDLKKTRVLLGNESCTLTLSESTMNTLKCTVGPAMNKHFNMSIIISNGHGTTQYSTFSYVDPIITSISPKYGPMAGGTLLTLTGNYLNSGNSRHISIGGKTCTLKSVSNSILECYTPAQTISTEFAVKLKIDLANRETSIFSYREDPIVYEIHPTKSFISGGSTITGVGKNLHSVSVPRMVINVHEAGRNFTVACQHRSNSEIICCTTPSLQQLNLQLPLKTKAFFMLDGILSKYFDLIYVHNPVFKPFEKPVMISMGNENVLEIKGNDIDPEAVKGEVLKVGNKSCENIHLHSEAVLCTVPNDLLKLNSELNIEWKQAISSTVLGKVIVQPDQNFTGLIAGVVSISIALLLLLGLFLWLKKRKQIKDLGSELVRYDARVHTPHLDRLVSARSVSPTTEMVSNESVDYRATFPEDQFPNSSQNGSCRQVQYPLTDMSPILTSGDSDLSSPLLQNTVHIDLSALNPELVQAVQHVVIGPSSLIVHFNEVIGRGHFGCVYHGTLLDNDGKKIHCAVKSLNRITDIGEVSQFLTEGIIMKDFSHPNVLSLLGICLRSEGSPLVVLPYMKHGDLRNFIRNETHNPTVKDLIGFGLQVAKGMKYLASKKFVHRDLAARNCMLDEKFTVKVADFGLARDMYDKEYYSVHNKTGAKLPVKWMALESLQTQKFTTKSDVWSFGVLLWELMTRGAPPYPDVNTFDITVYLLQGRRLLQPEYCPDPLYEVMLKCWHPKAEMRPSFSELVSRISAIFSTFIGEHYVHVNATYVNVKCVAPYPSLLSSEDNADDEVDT

Row | Binder | EC50
17 | B1 | 0.07 µg/mL
18 | B2 | 0.06 µg/mL
19 | B3 | 0.09 µg/mL
20 | B4 | 0.07 µg/mL
21 | B5 | 0.02 µg/mL
22 | B6 | 0.03 µg/mL
23 | B7 | 0.03 µg/mL
24 | B8 | 0.04 µg/mL

Target: T1, human c-Met (HGFR), full length, on the …
Assay: flow cytometry, NCI-H596 cells, without HGF
Description: as §1

Row | Binder | EC50
25 | B1 | 0.03 µg/mL
26 | B2 | 0.02 µg/mL
27 | B3 | 0.04 µg/mL
28 | B4 | 0.04 µg/mL
29 | B5 | 0.02 µg/mL
30 | B6 | 0.02 µg/mL
31 | B7 | 0.02 µg/mL
32 | B8 | 0.02 µg/mL

Target: T1, human c-Met (HGFR), full length, on the …
Assay: flow cytometry on MKN45, NCI-H596 and PC-3 cells
Description: as §1, with “14 wild-type chimeric and the 14 HC-41C chimeric” for “in total 75 humanized”, “antibodies” for “antibodies (originating from the three selected chimeric antibodies)”, “HGF (paracrine cell lines only),” for “HGF,”

Row | Binder | binding result
33 | B9 | binds
34 | B10 | binds
35 | B11 | binds
36 | B12 | binds

Target: T1, human c-Met (HGFR), full length, on the …
Assay: flow cytometry, PC-3 cells pre-incubated with 50 ng/mL HGF
Description: as §1

Row | Binder | EC50
37 | B1 | 0.09 µg/mL
38 | B2 | 0.09 µg/mL
39 | B3 | 0.13 µg/mL
40 | B4 | 0.15 µg/mL
41 | B5 | 0.06 µg/mL
42 | B6 | 0.08 µg/mL
43 | B7 | 0.09 µg/mL
44 | B8 | 0.07 µg/mL

Target: T2, rhesus c-Met on 4MBr-5 cells
Assay: flow cytometry, 4MBr-5 cells pre-incubated with 50 ng/mL HGF
Description: as §1

Row | Binder | EC50
45 | B1 | 0.09 µg/mL
46 | B2 | 0.09 µg/mL
47 | B3 | 0.15 µg/mL
48 | B4 | 0.08 µg/mL
49 | B5 | 0.03 µg/mL
50 | B6 | 0.05 µg/mL
51 | B7 | 0.04 µg/mL
52 | B8 | 0.03 µg/mL

Target: T1, human c-Met (HGFR), full length, on the …
Assay: flow cytometry, NCI-H596 cells pre-incubated with 50 ng/mL HGF
Description: as §1

Row | Binder | EC50
53 | B1 | 0.1 µg/mL
54 | B2 | 0.08 µg/mL
55 | B3 | 0.11 µg/mL
56 | B4 | 0.1 µg/mL
57 | B5 | 0.11 µg/mL
58 | B6 | 0.15 µg/mL
59 | B7 | 0.14 µg/mL
60 | B8 | 0.08 µg/mL

Target: T1, human c-Met (HGFR), full length, on the …
Assay: flow cytometry, PC-3 cells; EC50 with 50 ng/mL HGF against EC50 without HGF
Description: as §1

Row | Binder | Fold shift (HGF)
61 | B1 | 3.1 fold
62 | B2 | 2.3 fold
63 | B3 | 2.6 fold
64 | B4 | 1.9 fold
65 | B5 | 1.9 fold
66 | B6 | 2.7 fold
67 | B7 | 2.8 fold
68 | B8 | 2.4 fold

Target: T2, rhesus c-Met on 4MBr-5 cells
Assay: flow cytometry, 4MBr-5 cells; EC50 with 50 ng/mL HGF against EC50 without HGF
Description: as §1

Row | Binder | Fold shift (HGF)
69 | B1 | 1.2 fold
70 | B2 | 1.4 fold
71 | B3 | 1.7 fold
72 | B4 | 1.1 fold
73 | B5 | 1.7 fold
74 | B6 | 1.6 fold
75 | B7 | 1.4 fold
76 | B8 | 0.8 fold

Target: T1, human c-Met (HGFR), full length, on the …
Assay: flow cytometry, NCI-H596 cells; EC50 with 50 ng/mL HGF against EC50 without HGF
Description: as §1

Row | Binder | Fold shift (HGF)
77 | B1 | 3.3 fold
78 | B2 | 4 fold
79 | B3 | 2.8 fold
80 | B4 | 2.5 fold
81 | B5 | 5.5 fold
82 | B6 | 7.5 fold
83 | B7 | 7 fold
84 | B8 | 4 fold
